For one molecule, EC50 results are on record in patent publication US20240402174A1 (Takeda / Millennium, published 2024).

Test in all cases: multiplex microsphere immunoassay
One experiment has as its target T1, GI.3 VLP (norovirus Hu/GI.3/JKPG_883/SWE/2007).
T1 construct: also called GI.3 Sweden
T1 chain: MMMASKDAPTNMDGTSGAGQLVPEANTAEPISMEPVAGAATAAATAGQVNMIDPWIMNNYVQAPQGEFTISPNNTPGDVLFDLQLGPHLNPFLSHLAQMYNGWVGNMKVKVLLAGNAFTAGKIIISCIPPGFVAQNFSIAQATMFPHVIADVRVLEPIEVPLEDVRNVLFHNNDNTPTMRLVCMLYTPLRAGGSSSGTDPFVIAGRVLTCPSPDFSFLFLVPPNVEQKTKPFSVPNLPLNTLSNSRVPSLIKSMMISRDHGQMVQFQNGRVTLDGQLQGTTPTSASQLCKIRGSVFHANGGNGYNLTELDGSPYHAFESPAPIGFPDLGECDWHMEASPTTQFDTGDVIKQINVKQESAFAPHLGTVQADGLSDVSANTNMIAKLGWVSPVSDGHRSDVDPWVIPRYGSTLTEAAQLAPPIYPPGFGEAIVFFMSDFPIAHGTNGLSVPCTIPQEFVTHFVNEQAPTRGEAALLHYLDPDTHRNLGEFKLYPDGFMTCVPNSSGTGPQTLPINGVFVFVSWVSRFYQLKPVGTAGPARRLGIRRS

For the next experiment, the target named is T2, GI.2 VLP (norovirus Hu/GI.2/Jingzhou/2013401/CHN, UniProt Q04542 1-546).
T2 construct: also called GI.2 Jingzhou
T2 chain: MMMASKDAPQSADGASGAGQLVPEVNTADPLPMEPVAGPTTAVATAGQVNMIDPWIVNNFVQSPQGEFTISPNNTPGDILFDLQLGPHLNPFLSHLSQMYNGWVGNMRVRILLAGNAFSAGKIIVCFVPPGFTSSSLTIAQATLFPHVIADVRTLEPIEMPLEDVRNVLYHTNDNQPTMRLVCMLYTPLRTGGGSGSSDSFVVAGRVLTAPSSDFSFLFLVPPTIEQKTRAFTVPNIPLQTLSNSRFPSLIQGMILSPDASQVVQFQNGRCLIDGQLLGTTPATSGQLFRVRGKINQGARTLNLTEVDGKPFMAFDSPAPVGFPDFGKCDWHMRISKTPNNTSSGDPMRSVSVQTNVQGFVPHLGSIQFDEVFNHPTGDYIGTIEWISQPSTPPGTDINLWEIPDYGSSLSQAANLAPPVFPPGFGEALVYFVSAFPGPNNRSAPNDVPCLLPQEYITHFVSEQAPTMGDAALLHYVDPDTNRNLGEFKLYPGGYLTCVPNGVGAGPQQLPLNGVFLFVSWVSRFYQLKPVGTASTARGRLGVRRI

Another experiment has as its target T3, GI.6 VLP (norovirus Hu/GI.6/TCH-099/USA/2003).
T3 construct: also called GI.6 USA
T3 chain: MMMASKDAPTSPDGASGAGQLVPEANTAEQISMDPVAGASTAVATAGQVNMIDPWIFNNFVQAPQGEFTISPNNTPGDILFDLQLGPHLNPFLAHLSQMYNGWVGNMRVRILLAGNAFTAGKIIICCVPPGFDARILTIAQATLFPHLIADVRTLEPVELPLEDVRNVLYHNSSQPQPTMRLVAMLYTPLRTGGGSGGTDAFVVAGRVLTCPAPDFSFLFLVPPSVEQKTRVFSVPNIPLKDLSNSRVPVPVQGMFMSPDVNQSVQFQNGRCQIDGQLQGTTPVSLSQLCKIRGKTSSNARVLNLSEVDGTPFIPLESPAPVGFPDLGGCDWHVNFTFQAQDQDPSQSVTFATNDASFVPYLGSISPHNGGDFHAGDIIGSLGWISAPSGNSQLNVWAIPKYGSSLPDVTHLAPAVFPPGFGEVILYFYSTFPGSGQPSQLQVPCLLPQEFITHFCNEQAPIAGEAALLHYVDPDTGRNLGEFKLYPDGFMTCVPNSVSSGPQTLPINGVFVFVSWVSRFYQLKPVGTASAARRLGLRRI

The next experiment concerns the target T4, GI.7 VLP (norovirus Hu/GI.7/Providence191/2010/USA).
T4 construct: also called GI.7 Providence
T4 chain: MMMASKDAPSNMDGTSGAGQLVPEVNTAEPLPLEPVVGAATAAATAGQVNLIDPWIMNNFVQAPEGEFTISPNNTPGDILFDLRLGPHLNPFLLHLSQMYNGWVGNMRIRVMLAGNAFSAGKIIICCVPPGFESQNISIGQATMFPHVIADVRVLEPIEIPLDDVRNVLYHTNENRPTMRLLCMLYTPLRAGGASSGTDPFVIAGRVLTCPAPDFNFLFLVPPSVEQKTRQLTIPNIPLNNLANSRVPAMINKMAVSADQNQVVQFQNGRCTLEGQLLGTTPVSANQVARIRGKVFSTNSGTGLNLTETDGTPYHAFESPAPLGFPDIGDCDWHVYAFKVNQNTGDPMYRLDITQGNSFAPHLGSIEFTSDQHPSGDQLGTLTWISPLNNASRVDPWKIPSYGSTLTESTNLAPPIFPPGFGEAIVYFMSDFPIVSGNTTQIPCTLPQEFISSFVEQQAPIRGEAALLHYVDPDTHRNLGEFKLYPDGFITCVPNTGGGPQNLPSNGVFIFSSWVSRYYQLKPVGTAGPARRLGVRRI

The target in a further experiment is T5, GI.4 VLP (norovirus Hu/GI.4/1643/2008/US).
T5 construct: also called GI.4 US
T5 chain: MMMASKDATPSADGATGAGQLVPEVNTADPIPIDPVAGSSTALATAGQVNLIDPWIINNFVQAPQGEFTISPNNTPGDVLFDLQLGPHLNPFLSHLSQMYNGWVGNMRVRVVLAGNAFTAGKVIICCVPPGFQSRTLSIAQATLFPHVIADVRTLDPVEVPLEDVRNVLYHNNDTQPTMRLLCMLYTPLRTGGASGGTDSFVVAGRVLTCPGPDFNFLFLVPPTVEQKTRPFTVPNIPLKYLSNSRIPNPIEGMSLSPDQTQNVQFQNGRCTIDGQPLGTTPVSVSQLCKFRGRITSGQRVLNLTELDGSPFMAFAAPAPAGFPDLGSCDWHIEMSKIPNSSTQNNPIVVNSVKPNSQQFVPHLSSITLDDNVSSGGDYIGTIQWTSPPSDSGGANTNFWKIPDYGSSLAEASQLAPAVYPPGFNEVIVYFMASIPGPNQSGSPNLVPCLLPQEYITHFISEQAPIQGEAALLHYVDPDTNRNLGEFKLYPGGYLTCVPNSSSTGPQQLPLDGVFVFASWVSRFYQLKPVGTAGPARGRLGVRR

For a further experiment, the target named is T6, GI.5 VLP (norovirus …).
T6 construct: also called GI.5 Siklos
T6 chain: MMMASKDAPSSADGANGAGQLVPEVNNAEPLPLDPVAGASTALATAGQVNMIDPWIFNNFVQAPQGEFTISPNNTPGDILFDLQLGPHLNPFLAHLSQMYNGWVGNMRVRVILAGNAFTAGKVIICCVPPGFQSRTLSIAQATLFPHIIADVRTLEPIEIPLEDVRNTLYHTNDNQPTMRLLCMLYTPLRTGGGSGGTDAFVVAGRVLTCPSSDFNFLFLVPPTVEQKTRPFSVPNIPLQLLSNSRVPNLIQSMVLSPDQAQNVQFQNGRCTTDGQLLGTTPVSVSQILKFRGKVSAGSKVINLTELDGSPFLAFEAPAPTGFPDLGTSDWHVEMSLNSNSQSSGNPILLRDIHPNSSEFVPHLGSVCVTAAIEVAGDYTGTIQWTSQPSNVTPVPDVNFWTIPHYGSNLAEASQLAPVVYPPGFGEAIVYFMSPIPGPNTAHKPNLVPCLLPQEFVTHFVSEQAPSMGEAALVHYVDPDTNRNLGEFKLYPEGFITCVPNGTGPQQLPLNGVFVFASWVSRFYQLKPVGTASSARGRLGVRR

B1: human mAb 1227 (antibody, V domains shown)
VH: QVQLVQSGGGMVQPGGSLSLSCAASGFTLSNYAMTWVRQAPGKGLEWVSSIGGSGGTTYYADSVKGRFTISRDSSMNTLYLQMSNLRAGDTAVYYCAKDKTRTLRLGYSGMDVWGQGTTVTVSS
VL: DIRLTQSPSSLSASVGDRVTITCRASQSISSYLNWYQQKPGKAPDLLIYGASSLQSGVPSRFSGSGSGTDFTLTISSLQPEDFGNYYCQQSFSTPRTFGQGTKVEL
notes: also called A1227
By EC50 is commonly meant the midpoint of the concentration-response curve. A higher EC50 goes with lower potency in that assay. On to B1, for which the EC50 was 2 ng/mL with GI.3 VLP; 2 ng/mL with GI.2 VLP; 2 ng/mL with GI.6 VLP; 21 ng/mL with GI.7 VLP; 2 ng/mL with GI.4 VLP; 1 ng/mL with GI.5 VLP.
